We go through 9 molecules from patent publication US20260184811A1 (CEREIUS, published 2026).

Changes are numbered by the printed parent chain. Where two headings read alike, the source gives them in different places.

The target of assay [1] is T1, human HER2 receptor (human, UniProt P04626). Put plainly: ELISA specificity panel on ErbB family receptors, VHH titrated, A450.
Assay [2] deals with T1, human HER2 receptor. The assay is described as above. The source holds these as a separate data set.
The target in assay [3] is T1, human HER2 receptor. Described as above. This is another data set of the same source.
For assay [4], the target named is T1, human HER2 receptor. Briefly: ELISA on human HER2 receptor, purified VHH titrated, A450. A general note: An ELISA detects its analyte on a solid surface through an enzyme-linked reagent.
Assay [5] concerns the target T1, human HER2 receptor. The description is as above. The source holds these as a separate data set.
Assay [6] concerns the target T1, human HER2 receptor. Described as above. The source holds these as a separate data set.
The target in assay [7] is T1, human HER2 receptor. Described as above. The source holds these as a separate data set.
Assay [8] has as its target T1, human HER2 receptor. Described as above. The source holds these as a separate data set.
The target in assay [9] is T1, human HER2 receptor. The description is as above. This is another data set of the same source.
Assay [10] concerns the target T1, human HER2 receptor. Described as above. The source holds these as a separate data set.
The target of assay [11] is T1, human HER2 receptor. The description is as above. The source holds these as a separate data set.

B1: VHH_130 (VHH)
VHH: EVQLVESGGGLVQAGGSLRLSCAASGITFSINTMGWYRQAPGKQRELVALISSIGDTYYADSVRGRFTISRDNAKNTVYLQMNSLKPEDTAVYYCRRFRTAAQGTDYWGQGTQVTVSS
notes: also called VHH ID 130
What is called EC50 (read off the curve) is the concentration needed to bring the measured effect to its halfway point. A low value points to a more potent agent. For the molecule B1, the “EC50 (read off the curve)” value in [1], in assay [2] and in [3] was around 1 nM throughout.

B2: VHH_134 (VHH)
VHH: B1 VHH with K75R, K86R
notes: also called VHH ID 134
As to B2, in assay [4], the “EC50 (read off the curve)” value was around 1 nM.

B3: VHH_129 (VHH)
VHH: B1 VHH with R64K
notes: also called VHH ID 129
Turning to B3, the “EC50 (read off the curve)” value in assay [5] was around 1 nM.

B4: VHH_108 (VHH)
VHH: QVQLVESGGGLVQAGGSLRLSCAASGRTFSSYAMGWFRQAPGLEREFVAAIARGGVSTGYADSVKGRFAISRDNAKNMVYLQMNSLKPEDTAVYYCATYFWGSPHYWGQGTQVTVSS
notes: also called VHH ID 108
B4: in [6], the “EC50 (read off the curve)” value was around 6 nM.

B5: VHH_123 (VHH)
VHH: QVQLVESGGGLVQAGGSLRLSCAASGRTFNSYFYTMAWFRQAPGKEREFVARMNWNADSTYHADSVKGRFTISRENTVYLQMNSLEPEDTAVYYCAAKSISAPKYDYWGQGTQVTVSS
notes: also called VHH ID 123
For B5, the binding result in [7] is listed as “no binding”.

B6: VHH_110 (VHH)
VHH: QVQLVESGGGSVQLGGSLRLSCAVSGLGFSALAMGWFRQAPGKERERVAAISRTGGTTYYTDSVKGRFTISRDNGKNMVYLQMNSLKPEDAAVYYCASRYTALLSTTARGYDYWGQGTQVTVSS
notes: also called VHH ID 110
For B6, in assay [8], the binding result is “no binding”.

B7: VHH_118 (VHH)
VHH: EVQLVESGGGLVQPGGSLRLSCAASEFTFSNYAMSWVRQAPGKGLEWVSAINWSGGITTYADSVKGRFTISRDNAKNTLHLQMNSLKPEDTAVYYCAKGWGTTTRDTGLLSQGTLVTVSS
notes: also called VHH ID 118
Consider B7, for which the “EC50 (read off the curve)” value in [9] is around 6 nM.

B8: VHH_107 (VHH)
VHH: QVQLVESGGGLVQPGGSLRLSCAASGSIFSINVMGWYRQAPGMQRQLVAIITSGGSTNYADSVKGRFTVSRDNAKNTLYLRMNSLKPEDTAVYYCATIHVRESTWYYAYWGQGTQVTVSS
notes: also called VHH ID 107
Take B8: the “EC50 (read off the curve)” value in [10] was around 3 nM.

B9: VHH_109 (VHH)
VHH: QVQLVESGGGLVQPGGSLRLSCEASGFTFDDYGMSWVRQAPGKGLEWVSGITWNGGNPNYADSVKGRFTISRDNAKRTLYLQMNSLKAEDTAVYYCQRGYSRGYMYWGQGTQVTVSS
notes: also called VHH ID 109
Regarding B9, the “EC50 (read off the curve)” value in [11] is around 10 nM.
